Where a chain is given by its changes, count along the chain named. Names may count otherwise.
Experiments:
[1] = substrate: N[C@@H](Cc1c[nH]cn1)C(=O)O; assay: Steady-state kinetic assay of VAS1 I267M transaminase activity (rate of loss of IPA at 321 nm); type: biochemical, Arabidopsis thaliana; conditions: other: fixed 3-IPA 300 μM, variable L-His 0.1 to 10 mM, 0.4 μM VAS1 I267M, 100 μM PLP, pH 8.0, 23° C.
Experimental: (§1) FIG. 9A-B. Steady-state kinetic analyses of VAS1 I267M. […] Fixed concentration of L-His (10 mM) and variable concentrations of 3-IPA from 10 to 200 μM (A) Fixed concentration of 3-IPA (300 μM) and variable concentrations of L-His from 0.1 to 10 mM (B). Apparent KM, Vmax and kcat of VAS1 are shown above each curve and standard errors calculated from Graphpad Prism 5 software (www.graphpad.com).
(§2) The coding sequence of AtVAS1 was inserted between the NcoI and XhoI sites of the expression vector pHIS8 (“HIS8” disclosed as SEQ ID NO: 1) (a modified version of pET28a (+) containing an N-terminal 8-histidine tag (SEQ ID NO: 1)), which under the control of a T7 promoter. E. coli (BL21) cells harboring the AtVAS1 expression vector were grown in Terrific Broth at 37° C. until reaching an OD600 nm of 1.0 then cooled down to 18° C. and induced with 0.5 mM isopropyl-b-D-thiogalactoside (IPTG) and allowed to grow overnight at 18° C. for approximately 12-14 hr after. Cells were harvested by centrifugation and resuspended in lysis buffer (50 mM Tris-HCl, pH 8.0, 500 mM NaCl, 20 mM imidazole, 1% (v/v) Tween-20, 10% (v/v) glycerol, 10 mM 2-mercaptoethanol) containing lysozyme (0.5 mg/ml) at 4° C. for 1 hr and lysed by sonication. The lysate was centrifuged at 18,000 rpm for 45 min at 4° C. and then the supernatant were passed over Ni2+-NTA agarose (Qiagen). The AtVAS1 protein was eluted with lysate buffer supplemented with 250 mM imidazole after washed with wash buffer (lysis buffer without Tween-20 and glycerol). The N-terminal tag was cleaved by treatment with thrombin while dialyzing overnight in dialysis buffer (50 mM Tris-HCl, (pH8.0), 500 mM NaCl, 20 mM 2-mercaptoethanol). The thrombin and uncut AtVAS1 was removed by passing over Benzamidine Sepharose 4 Fast Flow (high sub) (GE Healthcare) and Ni2+-NTA agarose. AtVAS1 was further purified by size-exclusion chromatography using a Superdex 200 HR16/60 column. AtVAS1 fractions were combined, concentrated to approximately 12 mg ml-1 and frozen at −80° C. […]
(§3) For VAS1 I267M steady-state kinetic assays, 1 mL assay mixture contained 100 mM sodium phosphate buffer (pH 8.0), 0.4 μM recombinant VAS1 I 267M, 100 μM PLP and variable amounts of His (0.1 to 10 mM) and IPA (10 to 200 μM). The reactions were incubated at 23° C. and the OD321 nm were measured at 2-min, 5-min, 8-min, 10-min, 12-min and 15-min time points to monitor the linear rate of loss of IPA. Absorbance values were corrected to changes in IPA concentration based on an IPA standard curve. At 321 nm, absorbance from Trp was negligible. KM, kcat and Vmax were calculated by nonlinear regression analysis using GraphPad Prism 5 fits to the Michaelis-Menten equation.

[2] = substrate: O=C(O)C(=O)Cc1c[nH]c2ccccc12; assay: as above; type: biochemical, Arabidopsis thaliana; conditions: other: fixed L-His 10 mM, variable 3-IPA 10 to 200 μM, 0.4 μM VAS1 I267M, 100 μM PLP, pH 8.0, 23° C.
Experimental: as §1, §2, §3

[3] = Amino donor test of VAS1 variants (19 amino acids, 3-IPA as amino acceptor); type: biochemical, Arabidopsis thaliana; conditions: 19 natural amino acids (except Trp) as amino donor
Experimental: VAS1 and its variants transaminase activity was monitor by HPLC-MS with an Agilent 1100 series LC-MSD instrument and an Agilent Zorbax Eclipse XDB-C18 (4.6×150 mm, […]) reversed-phase column. Chromatographic separations employed a flow rate of 0.5 mL min-1 and a linear gradient with initial and final mobile phases consisting of 95% water: 4.9%: acetonitrile: 0.1% formic acid (v/v/v), and 5% water: 94.9% acetonitrile: 0.1% formic acid (v/v/v), respectively. VAS1 mutants relative activity assays were conducted in a 200 μL volume containing 50 mM L-Met (with the exception of L-Trp), 10 mM IPA, 200 μM PLP and 10 μg of purified VAS1 or VAS1 variants protein in a reaction buffer consisting of 50 mM K2HPO4/KH2PO4 (pH 8.5). To further test the best amino donor of I267M and I267F mutant, one of 19 other amino acids (with the exception of L-Trp) was taking the place of L-Met. […] Relative specific activities were calculated after integration of the Trp peak (based on the absorbance at 254 nm) and the activity against Met and IPA was arbitrarily set to 100% for VAS1 variants M19V, M19I, M19F, I267V, 1267 M and I267F. […]

[4] = target: the molecule itself; assay: X-ray crystal structure of VAS1•PLP complex

B1: Arabidopsis thaliana aminotransferase VAS1 (AtVAS1, NCBI Accession No. NP—178152, SEQ ID NO: 14), variant I267M (Ile267Met) (Arabidopsis thaliana; I267M) (protein)
chain: MGSFGMLSRRTLGTDMPVMAQIRSLMAELTNPMSLAQGVVHWQPPQKALEKVKELVWDPIISSYGPDEGLPELRQALLKKLREENKLTNSQVMVTAGANQAFVNLVITLCDAGDSVVMFEPYYFNSYMAFQMTGVTNIIVGPGQSDTLYPDADWLERTLSESKPTPKVVTVVNPGNPSGTYVPEPLLKRIAQICKDAGCWLIVDNTYEYFMYDGLKHCCVEGDHIVNVFSFSKTYGMMGWRLGYIAYSERLDGFATELVKIQDNIPMCAAIISQRLAVYALEEGSGWITERVKSLVKNRDIVKEALEPLGKENVKGGEGAIYLWAKLPEGHRDDFKVVRWLAHRHGVVVIPGCASGSPGYLRVSFGGLQEVEMRAAAARLRKGIEELLHHGMVE
notes: I267M by QuikChange mutagenesis
With B1 the Km [1] was 534 µM, the kcat [1] was 0.0392 s⁻¹ and the Km [2] was 62.4 µM. For the same molecule, the kcat [2] was 0.0447 s⁻¹.

B2: VAS1: wild-type pyridoxalphosphate-dependent aminotransferase of Arabidopsis thaliana (protein)
chain: B1 chain with M267I
For B2, the “aminotransferase activity / most efficient amino donor” value [3] was “Met is the most suitable amino donor”.

B3: Arabidopsis thaliana aminotransferase VAS1 (enzyme)
chain: B1 chain with M267I
modifications: PLP (pyridoxal phosphate) bound as internal aldimine to the epsilon-amino group of Lys 233
notes: The protein crystallised as a symmetric homodimer with PLP; also called AtVAS1
B3: binds [4].
